Reference: patent publication US20110251106A1 (NEXTERA, published 2011)

Biological target: T1, Streptavidin on Dynabeads MyOne-Streptavidin magnetic beads (UniProt P22629 37-163, limits assumed)
T1 construct: also called SA; SA beads
Assay: streptavidin bead capture of virions, anti-M13 MAb-HRP detection

T1 sequence (P22629 37-163 limits assumed): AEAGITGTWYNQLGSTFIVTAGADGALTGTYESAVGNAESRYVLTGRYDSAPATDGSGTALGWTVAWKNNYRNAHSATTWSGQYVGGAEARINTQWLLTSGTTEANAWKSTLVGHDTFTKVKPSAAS

B1: wild type pVII on M13K07 wt helper phage virions (other)
chain: MEQVADFDTIYQAMIQISVVLCFALGIIAGGQR
notes: Control virion with no tag on pVII; Also used here for phagemid virions packaged with wt M13K07; also called wildtype M13K07; wt pVII
B1: no binding.
